# Test results: patent US20180201654A1 (UNIVERSITY OF SOUTHERN CALIFORNIA, published 2018)
# How the values were obtained:
# [1] = target: T1, HAUSP (Herpes virus-associated ubiquitin-specific protease), full length (human, UniProt Q93009 1-1102); experiment: GST pulldown from transfected 293T cells, IB: Flag
# T1 construct: also called USP7; Flag-HAUSP
# [2] = target: T1, HAUSP (Herpes virus-associated …); experiment: GST pulldown from transfected cells, immunoblot with anti-HAUSP antibody
# [3] = target: T1, HAUSP (Herpes virus-associated …); experiment: co-immunoprecipitation from transfected 293T cells, IP: V5, IB: Flag
# [4] = target: T1, HAUSP (Herpes virus-associated …); experiment: as above; remark: listed apart in the source
# [5] = target: T2, HAUSP TRAF domain (HAUSP^62-205) (human, UniProt Q93009 62-205); experiment: ITC, titration against the HAUSP TRAF domain, 20 C
# T2 construct: also called TRAF-like domain of HAUSP
# T2 sequence (Q93009 62-205): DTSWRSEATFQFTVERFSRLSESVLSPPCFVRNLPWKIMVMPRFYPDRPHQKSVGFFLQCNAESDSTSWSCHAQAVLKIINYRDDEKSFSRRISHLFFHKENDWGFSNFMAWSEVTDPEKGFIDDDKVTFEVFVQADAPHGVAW
# T1 sequence (Q93009 whole entry): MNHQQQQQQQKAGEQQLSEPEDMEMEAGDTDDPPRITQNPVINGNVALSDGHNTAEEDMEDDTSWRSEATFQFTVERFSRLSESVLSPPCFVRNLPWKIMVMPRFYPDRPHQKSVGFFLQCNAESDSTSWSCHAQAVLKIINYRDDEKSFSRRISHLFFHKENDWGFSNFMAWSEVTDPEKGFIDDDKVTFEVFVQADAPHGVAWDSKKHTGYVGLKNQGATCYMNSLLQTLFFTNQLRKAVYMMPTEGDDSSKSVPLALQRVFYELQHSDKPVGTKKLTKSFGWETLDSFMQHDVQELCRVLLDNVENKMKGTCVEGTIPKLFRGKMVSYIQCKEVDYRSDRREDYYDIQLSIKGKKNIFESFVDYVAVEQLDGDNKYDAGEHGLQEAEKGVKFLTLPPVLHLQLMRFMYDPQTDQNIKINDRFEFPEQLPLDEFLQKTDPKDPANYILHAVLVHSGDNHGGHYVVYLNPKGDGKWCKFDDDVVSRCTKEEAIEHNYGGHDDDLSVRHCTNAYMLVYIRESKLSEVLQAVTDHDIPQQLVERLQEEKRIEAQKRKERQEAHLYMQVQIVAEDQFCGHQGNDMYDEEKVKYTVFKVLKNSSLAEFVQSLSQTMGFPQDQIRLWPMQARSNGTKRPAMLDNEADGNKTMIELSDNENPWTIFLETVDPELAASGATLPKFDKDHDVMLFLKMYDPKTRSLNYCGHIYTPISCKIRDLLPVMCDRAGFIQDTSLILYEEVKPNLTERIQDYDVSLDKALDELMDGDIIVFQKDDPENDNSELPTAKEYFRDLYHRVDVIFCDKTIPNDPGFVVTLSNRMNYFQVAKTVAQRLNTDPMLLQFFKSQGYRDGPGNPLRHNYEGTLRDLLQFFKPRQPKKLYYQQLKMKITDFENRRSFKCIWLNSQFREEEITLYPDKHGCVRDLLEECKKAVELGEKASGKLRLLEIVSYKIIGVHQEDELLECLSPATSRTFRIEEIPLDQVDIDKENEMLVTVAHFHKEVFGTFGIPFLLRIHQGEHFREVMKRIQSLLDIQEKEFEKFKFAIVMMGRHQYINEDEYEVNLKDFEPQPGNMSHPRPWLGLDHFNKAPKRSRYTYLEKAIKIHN
binder,measurement,setting,value
GST-vIRF4 1-153 (other) single chain: MPKAGGSEWATLWIIDALENNKFPYFSWFDRNNLLFAAPAPLPAGSDIPPGWYSVYHAFDEECDRVYGPSPVVGQTVYGRFGRLLRGTRRAVVRNDLRYSDTFGGSYVVWQLVRTPFKNCTYCYGAAYGPEKLQRFIQCLLSPPMQTTATRRS,binding result,[1],no binding
"GST-vIRF4^202-256 (other, not shown: GST tag of the pEBG-GST vector) SVWIPVNEGASTSGMGSSGTRQVTQASSFTWRVPGDPPAPSTLTGPSDPHSSGAG",binding result,[2],binds
V5/vIRF4 1-758 (other) single chain: MPKAGGSEWATLWIIDALENNKFPYFSWFDRNNLLFAAPAPLPAGSDIPPGWYSVYHAFDEECDRVYGPSPVVGQTVYGRFGRLLRGTRRAVVRNDLRYSDTFGGSYVVWQLVRTPFKNCTYCYGAAYGPEKLQRFIQCLLSPPMQTTATRRSDTREQSYEEAGAAAPAPPKAPSGLRGRPRKSNRYYNVGDITTEQKAACSVWIPVNEGASTSGMGSSGTRQVTQASSFTWRVPGDPPAPSTLTGPSDPHSSGAGLPGTAPPKPQHETRLAGTVSGVSGVAQTPGDTGQLAPPMRDGSRLPSTSPWIPACFPWGDLPVTGWWPQGASGLPEKVHPPTTGQFDPLSPRWTYTGIPSSQLNPAAPSWIPPHAQAGTFVGEFSQGAPLAPQGLLPQSGQCASAWLPRRETGAEGACGASTEGRAPQGAASERVYPFEPQPPSAPAPGYAKPSCYNWSPLAEPPATRPIRAPVWHPPVGHAVVPEVRTPLWIPWSSGGAPNQGLSHTQGGASATPSAGAPPTPEVAERQEPSSSGIPYVCQGDNMATGYRRVTTSSGALEVEIIDLTGDSDTPSTTVASTPLPVSGPRVFQPTVLYSAPEPAVNPEVSHLPTELERRECVCPGSGERPRVPLVSTYAGDRYAVGGYGPEQSLVPPPLGLPLTLSNLQGEDICTWEEGLGNILSELQEEPSSSTRQATDRRRPRSRSPHGRRTPVSHSGPEKPPSKMFFDPPDSQRVSFVVEIFVYGNLRGTLRREGDAGEA,binding result,[3],binds
"GTRQVTQASSFTWRVPG (other, not shown: GST tag of the pEBG-GST vector) [GST-vIRF4^220-236]",binding result,[2],binds
V5/vIRF4 1-305 (other) single chain: MPKAGGSEWATLWIIDALENNKFPYFSWFDRNNLLFAAPAPLPAGSDIPPGWYSVYHAFDEECDRVYGPSPVVGQTVYGRFGRLLRGTRRAVVRNDLRYSDTFGGSYVVWQLVRTPFKNCTYCYGAAYGPEKLQRFIQCLLSPPMQTTATRRSDTREQSYEEAGAAAPAPPKAPSGLRGRPRKSNRYYNVGDITTEQKAACSVWIPVNEGASTSGMGSSGTRQVTQASSFTWRVPGDPPAPSTLTGPSDPHSSGAGLPGTAPPKPQHETRLAGTVSGVSGVAQTPGDTGQLAPPMRDGSRLPSTS,binding result,[3],binds
"vIRF4 (Kaposi's-sarcoma-associated-herpesvirus vIRF4), full length wild type (other) MPKAGGSEWATLWIIDALENNKFPYFSWFDRNNLLFAAPAPLPAGSDIPPGWYSVYHAFDEECDRVYGPSPVVGQTVYGRFGRLLRGTRRAVVRNDLRYSDTFGGSYVVWQLVRTPFKNCTYCYGAAYGPEKLQRFIQCLLSPPMQTTATRRSDTREQSYEEAGAAAPAPPKAPSGLRGRPRKSNRYYNVGDITTEQKAACSVWIPVNEGASTSGMGSSGTRQVTQASSFTWRVPGDPPAPSTLTGPSDPHSSGAGLPGTAPPKPQHETRLAGTVSGVSGVAQTPGDTGQLAPPMRDGSRLPSTSPWIPACFPWGDLPVTGWWPQGASGLPEKVHPPTTGQFDPLSPRWTYTGIPSSQLNPAAPSWIPPHAQAGTFVGEFSQGAPLAPQGLLPQSGQCASAWLPRRETGAEGACGASTEGRAPQGAASERVYPFEPQPPSAPAPGYAKPSCYNWSPLAEPPATRPIRAPVWHPPVGHAVVPEVRTPLWIPWSSGGAPNQGLSHTQGGASATPSAGAPPTPEVAERQEPSSSGIPYVCQGDNMATGYRRVTTSSGALEVEIIDLTGDSDTPSTTVASTPLPVSGPRVFQPTVLYSAPEPAVNPEVSHLPTELERRECVCPGSGERPRVPLVSTYAGDRYAVGGYGPEQSLVPPPLGLPLTLSNLQGEDICTWEEGLGNILSELQEEPSSSTRQATDRRRPRSRSPHGRRTPVSHSGPEKPPSKMFFDPPDSQRVSFVVEIFVYGNLRGTLRREGDAGEAMLCSWPVGDTLGHLCQSFVPELLRIPRLTVPSPEQMEILNRVFEGLGHGFPIFCSMSGIYSRNATQVEGWWFGNPNSRYERILRSFSPRVPQQLFNTARYLATTAAIPQTPLSVNPVTCGTVFFGASPASTENFQNVPLTVKIFIGSIWDSLH",binding result,[4],binds
V5/vIRF4 1-454 (other) single chain: MPKAGGSEWATLWIIDALENNKFPYFSWFDRNNLLFAAPAPLPAGSDIPPGWYSVYHAFDEECDRVYGPSPVVGQTVYGRFGRLLRGTRRAVVRNDLRYSDTFGGSYVVWQLVRTPFKNCTYCYGAAYGPEKLQRFIQCLLSPPMQTTATRRSDTREQSYEEAGAAAPAPPKAPSGLRGRPRKSNRYYNVGDITTEQKAACSVWIPVNEGASTSGMGSSGTRQVTQASSFTWRVPGDPPAPSTLTGPSDPHSSGAGLPGTAPPKPQHETRLAGTVSGVSGVAQTPGDTGQLAPPMRDGSRLPSTSPWIPACFPWGDLPVTGWWPQGASGLPEKVHPPTTGQFDPLSPRWTYTGIPSSQLNPAAPSWIPPHAQAGTFVGEFSQGAPLAPQGLLPQSGQCASAWLPRRETGAEGACGASTEGRAPQGAASERVYPFEPQPPSAPAPGYAKPSCYNW,binding result,[3],binds
GST-vIRF4 153-305 (other) single chain: SDTREQSYEEAGAAAPAPPKAPSGLRGRPRKSNRYYNVGDITTEQKAACSVWIPVNEGASTSGMGSSGTRQVTQASSFTWRVPGDPPAPSTLTGPSDPHSSGAGLPGTAPPKPQHETRLAGTVSGVSGVAQTPGDTGQLAPPMRDGSRLPSTS,binding result,[1],binds
vIRF4^153-216 (other) SDTREQSYEEAGAAAPAPPKAPSGLRGRPRKSNRYYNVGDITTEQKAACSVWIPVNEGASTSGM,Ka,[5],1.84e+06 M⁻¹
same,Kd,[5],540 nM
same,TΔS,[5],-7.35 kcal/mol
same,n,[5],0.82
same,ΔG,[5],-8.41 kcal/mol
same,ΔH,[5],-15.8 kcal/mol
V5/vIRF4 1-605 (other) single chain: MPKAGGSEWATLWIIDALENNKFPYFSWFDRNNLLFAAPAPLPAGSDIPPGWYSVYHAFDEECDRVYGPSPVVGQTVYGRFGRLLRGTRRAVVRNDLRYSDTFGGSYVVWQLVRTPFKNCTYCYGAAYGPEKLQRFIQCLLSPPMQTTATRRSDTREQSYEEAGAAAPAPPKAPSGLRGRPRKSNRYYNVGDITTEQKAACSVWIPVNEGASTSGMGSSGTRQVTQASSFTWRVPGDPPAPSTLTGPSDPHSSGAGLPGTAPPKPQHETRLAGTVSGVSGVAQTPGDTGQLAPPMRDGSRLPSTSPWIPACFPWGDLPVTGWWPQGASGLPEKVHPPTTGQFDPLSPRWTYTGIPSSQLNPAAPSWIPPHAQAGTFVGEFSQGAPLAPQGLLPQSGQCASAWLPRRETGAEGACGASTEGRAPQGAASERVYPFEPQPPSAPAPGYAKPSCYNWSPLAEPPATRPIRAPVWHPPVGHAVVPEVRTPLWIPWSSGGAPNQGLSHTQGGASATPSAGAPPTPEVAERQEPSSSGIPYVCQGDNMATGYRRVTTSSGALEVEIIDLTGDSDTPSTTVASTPLPVSGPRVFQPTVLYSAPEPAVNPEVS,binding result,[3],binds
